Source: IntAct's records for PubMed 19850040

B1: Post-transcriptional regulator MTA (Human herpesvirus 8), Q2HR75 (parent)
chain: MVQAMIDMDIMKGILEDSVSSSEFDESRDDETDAPTLEDEQLSEPAEPPADERIRGTQSAQGIPPPLGRIPKKSQGRSQLRSEIQFCSPLSRPRSPSPVNRYGKKIKFGTAGQNTRPPPEKRPRRRPRDRLQYGRTTRGGQCRAAPKRATRRPQVNCQRQDDDVRQGVSDAVKKLRLPASMIIDGESPRFDDSIIPRHHGACFNVFIPAPPSHVPEVFTDRDITALIRAGGKDDELINKKISAKKIDHLHRQMLSFVTSRHNQAYWVSCRRETAAAGGLQTLGAFVEEQMTWAQTVVRHGGWFDEKDIDIILDTAIFVCNAFVTRFRLLHLSCVFDKQSELALIKQVAYLVAMGNRLVEACNLLGEVKLNFRGGLLLAFVLTIPGMQSRRSISARGQELFRTLLEYYRPGDVMGLLNVIVMEHHSLCRNSECAAATRAAMGSAKFNKGLFFYPLS

Variants of: B1
Details: with thoc4_human ALYREF

Variant	effect of a mutation on the interaction
MVQAMIDMDIMKGILEDSVSSSEFDESRDDETDAPTLEDEQLSEPAEPPADERIRGTQSAQGIPPPLGRIPKKSQGRSQLRSEIQFCSPLSRPRSPSPVNRYGKKIKFGTAGQNTRPPPEKSPRRRPRDRLQYGRTTRGGQCRAAPKRATRRPQVNCQRQDDDVRQGVSDAVKKLRLPASMIIDGESPRFDDSIIPRHHGACFNVFIPAPPSHVPEVFTDRDITALIRAGGKDDELINKKISAKKIDHLHRQMLSFVTSRHNQAYWVSCRRETAAAGGLQTLGAFVEEQMTWAQTVVRHGGWFDEKDIDIILDTAIFVCNAFVTRFRLLHLSCVFDKQSELALIKQVAYLVAMGNRLVEACNLLGEVKLNFRGGLLLAFVLTIPGMQSRRSISARGQELFRTLLEYYRPGDVMGLLNVIVMEHHSLCRNSECAAATRAAMGSAKFNKGLFFYPLS [R122S]	disrupting interaction
MVQAMIDMDIMKGILEDSVSSSEFDESRDDETDAPTLEDEQLSEPAEPPADERIRGTQSAQGIPPPLGRIPKKSQGRSQLRSEIQFCSPLSRPRSPSPVNRYGKKIKFGTAGQNTRPPPEKRPRRRPRDRLQYGRTTRGGQCRAAPERATRRPQVNCQRQDDDVRQGVSDAVKKLRLPASMIIDGESPRFDDSIIPRHHGACFNVFIPAPPSHVPEVFTDRDITALIRAGGKDDELINKKISAKKIDHLHRQMLSFVTSRHNQAYWVSCRRETAAAGGLQTLGAFVEEQMTWAQTVVRHGGWFDEKDIDIILDTAIFVCNAFVTRFRLLHLSCVFDKQSELALIKQVAYLVAMGNRLVEACNLLGEVKLNFRGGLLLAFVLTIPGMQSRRSISARGQELFRTLLEYYRPGDVMGLLNVIVMEHHSLCRNSECAAATRAAMGSAKFNKGLFFYPLS [K147E]	disrupting interaction
MVQAMIDMDIMKGILEDSVSSSEFDESRDDETDAPTLEDEQLSEPAEPPADERIRGTQSAQGIPPPLGRIPKKSQGRSQLRSEIQFCSPLSRPRSPSPVNRYGKKIKFGTAGQNTRPPPEKRPRRRPRDRLQYGRTTRGGQCRAAPKRATRGPQVNCQRQDDDVRQGVSDAVKKLRLPASMIIDGESPRFDDSIIPRHHGACFNVFIPAPPSHVPEVFTDRDITALIRAGGKDDELINKKISAKKIDHLHRQMLSFVTSRHNQAYWVSCRRETAAAGGLQTLGAFVEEQMTWAQTVVRHGGWFDEKDIDIILDTAIFVCNAFVTRFRLLHLSCVFDKQSELALIKQVAYLVAMGNRLVEACNLLGEVKLNFRGGLLLAFVLTIPGMQSRRSISARGQELFRTLLEYYRPGDVMGLLNVIVMEHHSLCRNSECAAATRAAMGSAKFNKGLFFYPLS [R152G]	disrupting interaction
MVQAMIDMDIMKGILEDSVSSSEFDESRDDETDAPTLEDEQLSEPAEPPADERIRGTQSAQGIPPPLGRIPKKSQGRSQLRSEIQFCSPLSRPRSPSPVNRYGKKIKFGTAGQNTRPPPEKRPRRRPRDGLQYGRTTRGGQCRAAPKRATRRPQVNCQRQDDDVRQGVSDAVKKLRLPASMIIDGESPRFDDSIIPRHHGACFNVFIPAPPSHVPEVFTDRDITALIRAGGKDDELINKKISAKKIDHLHRQMLSFVTSRHNQAYWVSCRRETAAAGGLQTLGAFVEEQMTWAQTVVRHGGWFDEKDIDIILDTAIFVCNAFVTRFRLLHLSCVFDKQSELALIKQVAYLVAMGNRLVEACNLLGEVKLNFRGGLLLAFVLTIPGMQSRRSISARGQELFRTLLEYYRPGDVMGLLNVIVMEHHSLCRNSECAAATRAAMGSAKFNKGLFFYPLS [R130G]	disrupting interaction
MVQAMIDMDIMKGILEDSVSSSEFDESRDDETDAPTLEDEQLSEPAEPPADERIRGTQSAQGIPPPLGRIPKKSQGRSQLRSEIQFCSPLSRPRSPSPVNRYGKKIKFGTAGQNTRPPPEKRPQRRPRDRLQYGRTTRGGQCRAAPKRATRRPQVNCQRQDDDVRQGVSDAVKKLRLPASMIIDGESPRFDDSIIPRHHGACFNVFIPAPPSHVPEVFTDRDITALIRAGGKDDELINKKISAKKIDHLHRQMLSFVTSRHNQAYWVSCRRETAAAGGLQTLGAFVEEQMTWAQTVVRHGGWFDEKDIDIILDTAIFVCNAFVTRFRLLHLSCVFDKQSELALIKQVAYLVAMGNRLVEACNLLGEVKLNFRGGLLLAFVLTIPGMQSRRSISARGQELFRTLLEYYRPGDVMGLLNVIVMEHHSLCRNSECAAATRAAMGSAKFNKGLFFYPLS [R124Q]	disrupting interaction
MVQAMIDMDIMKGILEDSVSSSEFDESRDDETDAPTLEDEQLSEPAEPPADERIRGTQSAQGIPPPLGRIPKKSQGRSQLRSEIQFCSPLSRPRSPSPVNRYGKKIKFGTAGQNTRPPPEMRPRRRPRDRLQYGRTTRGGQCRAAPKRATRRPQVNCQRQDDDVRQGVSDAVKKLRLPASMIIDGESPRFDDSIIPRHHGACFNVFIPAPPSHVPEVFTDRDITALIRAGGKDDELINKKISAKKIDHLHRQMLSFVTSRHNQAYWVSCRRETAAAGGLQTLGAFVEEQMTWAQTVVRHGGWFDEKDIDIILDTAIFVCNAFVTRFRLLHLSCVFDKQSELALIKQVAYLVAMGNRLVEACNLLGEVKLNFRGGLLLAFVLTIPGMQSRRSISARGQELFRTLLEYYRPGDVMGLLNVIVMEHHSLCRNSECAAATRAAMGSAKFNKGLFFYPLS [K121M]	disrupting interaction
MVQAMIDMDIMKGILEDSVSSSEFDESRDDETDAPTLEDEQLSEPAEPPADERIRGTQSAQGIPPPLGRIPKKSQGRSQLRSEIQFCSPLSRPRSPSPVNRYGKKIKFGTAGQNTRPPPEKRPRGRPRDRLQYGRTTRGGQCRAAPKRATRRPQVNCQRQDDDVRQGVSDAVKKLRLPASMIIDGESPRFDDSIIPRHHGACFNVFIPAPPSHVPEVFTDRDITALIRAGGKDDELINKKISAKKIDHLHRQMLSFVTSRHNQAYWVSCRRETAAAGGLQTLGAFVEEQMTWAQTVVRHGGWFDEKDIDIILDTAIFVCNAFVTRFRLLHLSCVFDKQSELALIKQVAYLVAMGNRLVEACNLLGEVKLNFRGGLLLAFVLTIPGMQSRRSISARGQELFRTLLEYYRPGDVMGLLNVIVMEHHSLCRNSECAAATRAAMGSAKFNKGLFFYPLS [R125G]	disrupting interaction
MVQAMIDMDIMKGILEDSVSSSEFDESRDDETDAPTLEDEQLSEPAEPPADERIRGTQSAQGIPPPLGRIPKKSQGRSQLRSEIQFCSPLSRPRSPSPVNRYGKKIKFGTAGQNTRPPPEKRPRRRPRDRLQYGRTTRGGQCDAAPKRATRRPQVNCQRQDDDVRQGVSDAVKKLRLPASMIIDGESPRFDDSIIPRHHGACFNVFIPAPPSHVPEVFTDRDITALIRAGGKDDELINKKISAKKIDHLHRQMLSFVTSRHNQAYWVSCRRETAAAGGLQTLGAFVEEQMTWAQTVVRHGGWFDEKDIDIILDTAIFVCNAFVTRFRLLHLSCVFDKQSELALIKQVAYLVAMGNRLVEACNLLGEVKLNFRGGLLLAFVLTIPGMQSRRSISARGQELFRTLLEYYRPGDVMGLLNVIVMEHHSLCRNSECAAATRAAMGSAKFNKGLFFYPLS [R143D]	disrupting interaction
MVQAMIDMDIMKGILEDSVSSSEFDESRDDETDAPTLEDEQLSEPAEPPADERIRGTQSAQGIPPPLGRIPKKSQGRSQLRSEIQFCSPLSRPRSPSPVNRYGKKIKFGTAGQNTRPPPEKRPRRRPRDRLQYGRTTRGGQCRAAPKQATRRPQVNCQRQDDDVRQGVSDAVKKLRLPASMIIDGESPRFDDSIIPRHHGACFNVFIPAPPSHVPEVFTDRDITALIRAGGKDDELINKKISAKKIDHLHRQMLSFVTSRHNQAYWVSCRRETAAAGGLQTLGAFVEEQMTWAQTVVRHGGWFDEKDIDIILDTAIFVCNAFVTRFRLLHLSCVFDKQSELALIKQVAYLVAMGNRLVEACNLLGEVKLNFRGGLLLAFVLTIPGMQSRRSISARGQELFRTLLEYYRPGDVMGLLNVIVMEHHSLCRNSECAAATRAAMGSAKFNKGLFFYPLS [R148Q]	disrupting interaction
MVQAMIDMDIMKGILEDSVSSSEFDESRDDETDAPTLEDEQLSEPAEPPADERIRGTQSAQGIPPPLGRIPKKSQGRSQLRSEIQFCSPLSRPRSPSPVNRYGKKIKFGTAGQNTRPPPEKRPRRRPRDRLQYGRTTRGGQCRAAPKRATDRPQVNCQRQDDDVRQGVSDAVKKLRLPASMIIDGESPRFDDSIIPRHHGACFNVFIPAPPSHVPEVFTDRDITALIRAGGKDDELINKKISAKKIDHLHRQMLSFVTSRHNQAYWVSCRRETAAAGGLQTLGAFVEEQMTWAQTVVRHGGWFDEKDIDIILDTAIFVCNAFVTRFRLLHLSCVFDKQSELALIKQVAYLVAMGNRLVEACNLLGEVKLNFRGGLLLAFVLTIPGMQSRRSISARGQELFRTLLEYYRPGDVMGLLNVIVMEHHSLCRNSECAAATRAAMGSAKFNKGLFFYPLS [R151D]	disrupting interaction
MVQAMIDMDIMKGILEDSVSSSEFDESRDDETDAPTLEDEQLSEPAEPPADERIRGTQSAQGIPPPLGRIPKKSQGRSQLRSEIQFCSPLSRPRSPSPVNRYGKKIKFGTAGQNTRPPPEKRPRREPRDRLQYGRTTRGGQCRAAPKRATRRPQVNCQRQDDDVRQGVSDAVKKLRLPASMIIDGESPRFDDSIIPRHHGACFNVFIPAPPSHVPEVFTDRDITALIRAGGKDDELINKKISAKKIDHLHRQMLSFVTSRHNQAYWVSCRRETAAAGGLQTLGAFVEEQMTWAQTVVRHGGWFDEKDIDIILDTAIFVCNAFVTRFRLLHLSCVFDKQSELALIKQVAYLVAMGNRLVEACNLLGEVKLNFRGGLLLAFVLTIPGMQSRRSISARGQELFRTLLEYYRPGDVMGLLNVIVMEHHSLCRNSECAAATRAAMGSAKFNKGLFFYPLS [R126E]	disrupting interaction
MVQAMIDMDIMKGILEDSVSSSEFDESRDDETDAPTLEDEQLSEPAEPPADERIRGTQSAQGIPPPLGRIPKKSQGRSQLRSEIQFCSPLSRPRSPSPVNRYGKKIKFGTAGQNTRPPPEKRPRRRPSDRLQYGRTTRGGQCRAAPKRATRRPQVNCQRQDDDVRQGVSDAVKKLRLPASMIIDGESPRFDDSIIPRHHGACFNVFIPAPPSHVPEVFTDRDITALIRAGGKDDELINKKISAKKIDHLHRQMLSFVTSRHNQAYWVSCRRETAAAGGLQTLGAFVEEQMTWAQTVVRHGGWFDEKDIDIILDTAIFVCNAFVTRFRLLHLSCVFDKQSELALIKQVAYLVAMGNRLVEACNLLGEVKLNFRGGLLLAFVLTIPGMQSRRSISARGQELFRTLLEYYRPGDVMGLLNVIVMEHHSLCRNSECAAATRAAMGSAKFNKGLFFYPLS [R128S]	disrupting interaction

Variants of: B1
Details: with thoc4_human ALYREF
Remark: another data set of the same source

Variant	effect of a mutation on the interaction
MVQAMIDMDIMKGILEDSVSSSEFDESRDDETDAPTLEDEQLSEPAEPPADERIRGTQSAQGIPPPLGRIPKKSQGRSQLRSEIQFCSPLSRPRSPSPVNRYGNKIKFGTAGQNTRPPPEKRPRRRPRDRLQYGRTTRGGQCRAAPKRATRRPQVNCQRQDDDVRQGVSDAVKKLRLPASMIIDGESPRFDDSIIPRHHGACFNVFIPAPPSHVPEVFTDRDITALIRAGGKDDELINKKISAKKIDHLHRQMLSFVTSRHNQAYWVSCRRETAAAGGLQTLGAFVEEQMTWAQTVVRHGGWFDEKDIDIILDTAIFVCNAFVTRFRLLHLSCVFDKQSELALIKQVAYLVAMGNRLVEACNLLGEVKLNFRGGLLLAFVLTIPGMQSRRSISARGQELFRTLLEYYRPGDVMGLLNVIVMEHHSLCRNSECAAATRAAMGSAKFNKGLFFYPLS [K104N]	disrupting interaction
